The test system of this assay is pSphK1. The assay is described as follows: pSphK1 immunofluorescence in THP-1 macrophages. The assay is classed as cell-based, human. The note with it: THP1 macrophages; 1 hour EMAP II. The protocol:
Few passages after thawing of THP-1 cell line, cells were seeded in Nunc Lab-Tek™ II 4-well imaging plates and treated with 100 nM Phorbol myristate acetate (InvivoGen, CA) for 3 days allowing THP-1 monocytes to differentiate into macrophages.
Primary hPASMCs cells or human THP-1 macrophages were seeded in Nunc Lab-Tek™ II 4-well imaging plates (Thermo Fisher Scientific) chamber well slides and cultured in growth medium. After the serum starvation cells were stimulated with EMAP II. Treated cells were rinsed with PBS and fixed with 4% paraformaldehyde at room temperature for 15 min and permeabilized with 0.1% Triton X-100 at room temperature for 10 min After washing with PBS three times, the cells were incubated with EGR1, 1amin, or pSphK1 antibody at 40C overnight. The cells were then rinsed with PBS three times and subsequently incubated with respective secondary antibody conjugated with Alex Fluor 647 and 488 or Phalloidin 488 at room temperature for 1 h. The cells were rinsed with PBS three times and coverslips were mounted with SlowFade Gold Antifade Mountant with DAPI (Thermo Fischer Scientific) and the cells were examined under Olympus microscope with 40× for EGR1 expression and with 60× for pSphK1 water immersion. […]

“Also recorded” adds a separate entry of the source.

B1: EMAP II: 6x-His tagged recombinant EMAP II, cleaved C-terminal peptide of AIMP1 (SEQ ID NO: 2), pro-inflammatory cytokine (protein)
chain: IAGSADSKPIDVSRLDLRIGCIITARKHPDADSLYVEEVDVGEIAPRTVVSGLVNHVPLEQMQNRMVILLCNLKPAKMRGVLSQAMVMCASSPEKIEILAPPNGSVPGDRITFDAFPGEPDKELNPKKKIWEQIQPDLHTNDECVATYKGVPFEVKGKGVCRAQTMSNSGIK
For the molecule B1, the “pSphK1 localization to the plasma membrane” value is recorded as “stimulated translocation; also recorded: elevated levels of pSPHK1”.

The values are drawn from patent publication US20200397816A1, “METHODS TO TREAT INFLAMMATORY AND SMOOTH MUSCLE CELL PROLIFERATION DISORDERS” (THE TRUSTEES OF INDIANA UNIVERSITY, priority 2019, published 2020).
